Data reported in PMC2213607 (The Journal of Cell Biology, 2008).

Tests used:
[1] = target: His-tagged (6×) human Rab6A (human, UniProt P20340 1-208); test: pull-down
[2] = target: the molecule itself

Sequence of His-tagged (6×) human Rab6A (P20340 whole entry): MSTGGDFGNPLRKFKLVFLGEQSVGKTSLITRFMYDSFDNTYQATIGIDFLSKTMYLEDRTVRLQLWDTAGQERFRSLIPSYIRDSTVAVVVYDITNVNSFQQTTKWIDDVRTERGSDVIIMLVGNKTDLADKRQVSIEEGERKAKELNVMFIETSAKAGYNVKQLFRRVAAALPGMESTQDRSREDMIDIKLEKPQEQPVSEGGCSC

| binding result [1] | Binder | stoichiometry N [2] |
| --- | --- | --- |
| binds | GCC185 C-110 (fragment of the 110 C-terminal-most amino acids of GCC185) (domain or fragment, UniProt Q8IWJ2 1575-1684, looked up) LNGLLRETEATNAILMEQIKLLKSEIRRLERNQEREKSAANLEYLKNVLLQFIFLKPGSERERLLPVINTMLQLSPEEKGKLAAVAQGEEENASRSSGWASYLHSWSGLR | – |
| – | GCC185 C-110 I1588A/L1595A (domain or fragment, UniProt Q8IWJ2 1575-1684, looked up) LNGLLRETEATNAALMEQIKALKSEIRRLERNQEREKSAANLEYLKNVLLQFIFLKPGSERERLLPVINTMLQLSPEEKGKLAAVAQGEEENASRSSGWASYLHSWSGLR | 2 |
